Tested on: neural stem cell lines derived from fetal human brain
Test: Expression signature (35 signature genes) of neural stem cell lines after BDNF treatment and withdrawal
Format: cell-based
Settings: two neural stem cell lines
Experimental: Signal intensity values from Microarray Analysis Suite version were utilized with a scaling factor of 500 for all analysis of microarray data. K-means clustering and agglomerative clustering were performed with the use of Spotfire Decision Site software version 7.3 using Pearson correlation as the similarity measure. For each gene, data was normalized into Z scores prior to clustering. The 35 signature genes used for tumor classification represent the most robust markers for each of three tumor subsets in the MDA survival sample set. Markers of each subset are identified as follows: Each of the 76 samples is assigned to one of three groups based on k-means clustering of expression of the 108 genes most strongly correlated with survival. Using a p value cutoff of 1×10^−4, t tests were utilized to identify all genes whose expression differed between samples in each subclass compared to tumors of other subclasses (see Table A, GDM). For each comparison, we then rank-ordered the 500 probe sets with the smallest p values, by fold change. […] The final 35 signature genes contain 15 PN, 15 Mes, and 5 Prolif markers. […] For statistical comparisons of data presented in FIG. 4 F-I and FIG. 7, log-transformed data was analyzed via t tests corrected for multiple group comparisons. […]

B1: BDNF: the neurotrophic factor BDNF (protein, UniProt P23560 19-247, looked up)
Neurotrophic factor BDNF …: APMKEANIRGQGGLAYPGVRTHGTLESVNGPKAGSRGLTSLADTFEHVIEELLDEDQKVRPNEENNKDADLYTSRVMLSSQVPLEPPLLFLLEEYKNYLDAANMSMRVRRHSDPARRGELSVCDSISEWVTAADKKTAVDMSGGTVTVLEKVPVSKGQLKQYFYETKCNPMGYTKEGCRGIDKRHWNSQCRTTQSYVRALTMDSKKRIGWRFIRIDTSCVCTLTIKRGR
shift of expression signature subclass: shifted signature subclass from the PN to the Mes class
